This assay concerns the target recombinant biotin-FLAG-tagged human ATM (human, UniProt Q13315 1-3056, biotin). The assay can be described thus: pull-down.

The source of these data is article PMC6083883 (Molecular cell, 2018).

Sequence of recombinant biotin-FLAG-tagged human ATM (Q13315 whole entry): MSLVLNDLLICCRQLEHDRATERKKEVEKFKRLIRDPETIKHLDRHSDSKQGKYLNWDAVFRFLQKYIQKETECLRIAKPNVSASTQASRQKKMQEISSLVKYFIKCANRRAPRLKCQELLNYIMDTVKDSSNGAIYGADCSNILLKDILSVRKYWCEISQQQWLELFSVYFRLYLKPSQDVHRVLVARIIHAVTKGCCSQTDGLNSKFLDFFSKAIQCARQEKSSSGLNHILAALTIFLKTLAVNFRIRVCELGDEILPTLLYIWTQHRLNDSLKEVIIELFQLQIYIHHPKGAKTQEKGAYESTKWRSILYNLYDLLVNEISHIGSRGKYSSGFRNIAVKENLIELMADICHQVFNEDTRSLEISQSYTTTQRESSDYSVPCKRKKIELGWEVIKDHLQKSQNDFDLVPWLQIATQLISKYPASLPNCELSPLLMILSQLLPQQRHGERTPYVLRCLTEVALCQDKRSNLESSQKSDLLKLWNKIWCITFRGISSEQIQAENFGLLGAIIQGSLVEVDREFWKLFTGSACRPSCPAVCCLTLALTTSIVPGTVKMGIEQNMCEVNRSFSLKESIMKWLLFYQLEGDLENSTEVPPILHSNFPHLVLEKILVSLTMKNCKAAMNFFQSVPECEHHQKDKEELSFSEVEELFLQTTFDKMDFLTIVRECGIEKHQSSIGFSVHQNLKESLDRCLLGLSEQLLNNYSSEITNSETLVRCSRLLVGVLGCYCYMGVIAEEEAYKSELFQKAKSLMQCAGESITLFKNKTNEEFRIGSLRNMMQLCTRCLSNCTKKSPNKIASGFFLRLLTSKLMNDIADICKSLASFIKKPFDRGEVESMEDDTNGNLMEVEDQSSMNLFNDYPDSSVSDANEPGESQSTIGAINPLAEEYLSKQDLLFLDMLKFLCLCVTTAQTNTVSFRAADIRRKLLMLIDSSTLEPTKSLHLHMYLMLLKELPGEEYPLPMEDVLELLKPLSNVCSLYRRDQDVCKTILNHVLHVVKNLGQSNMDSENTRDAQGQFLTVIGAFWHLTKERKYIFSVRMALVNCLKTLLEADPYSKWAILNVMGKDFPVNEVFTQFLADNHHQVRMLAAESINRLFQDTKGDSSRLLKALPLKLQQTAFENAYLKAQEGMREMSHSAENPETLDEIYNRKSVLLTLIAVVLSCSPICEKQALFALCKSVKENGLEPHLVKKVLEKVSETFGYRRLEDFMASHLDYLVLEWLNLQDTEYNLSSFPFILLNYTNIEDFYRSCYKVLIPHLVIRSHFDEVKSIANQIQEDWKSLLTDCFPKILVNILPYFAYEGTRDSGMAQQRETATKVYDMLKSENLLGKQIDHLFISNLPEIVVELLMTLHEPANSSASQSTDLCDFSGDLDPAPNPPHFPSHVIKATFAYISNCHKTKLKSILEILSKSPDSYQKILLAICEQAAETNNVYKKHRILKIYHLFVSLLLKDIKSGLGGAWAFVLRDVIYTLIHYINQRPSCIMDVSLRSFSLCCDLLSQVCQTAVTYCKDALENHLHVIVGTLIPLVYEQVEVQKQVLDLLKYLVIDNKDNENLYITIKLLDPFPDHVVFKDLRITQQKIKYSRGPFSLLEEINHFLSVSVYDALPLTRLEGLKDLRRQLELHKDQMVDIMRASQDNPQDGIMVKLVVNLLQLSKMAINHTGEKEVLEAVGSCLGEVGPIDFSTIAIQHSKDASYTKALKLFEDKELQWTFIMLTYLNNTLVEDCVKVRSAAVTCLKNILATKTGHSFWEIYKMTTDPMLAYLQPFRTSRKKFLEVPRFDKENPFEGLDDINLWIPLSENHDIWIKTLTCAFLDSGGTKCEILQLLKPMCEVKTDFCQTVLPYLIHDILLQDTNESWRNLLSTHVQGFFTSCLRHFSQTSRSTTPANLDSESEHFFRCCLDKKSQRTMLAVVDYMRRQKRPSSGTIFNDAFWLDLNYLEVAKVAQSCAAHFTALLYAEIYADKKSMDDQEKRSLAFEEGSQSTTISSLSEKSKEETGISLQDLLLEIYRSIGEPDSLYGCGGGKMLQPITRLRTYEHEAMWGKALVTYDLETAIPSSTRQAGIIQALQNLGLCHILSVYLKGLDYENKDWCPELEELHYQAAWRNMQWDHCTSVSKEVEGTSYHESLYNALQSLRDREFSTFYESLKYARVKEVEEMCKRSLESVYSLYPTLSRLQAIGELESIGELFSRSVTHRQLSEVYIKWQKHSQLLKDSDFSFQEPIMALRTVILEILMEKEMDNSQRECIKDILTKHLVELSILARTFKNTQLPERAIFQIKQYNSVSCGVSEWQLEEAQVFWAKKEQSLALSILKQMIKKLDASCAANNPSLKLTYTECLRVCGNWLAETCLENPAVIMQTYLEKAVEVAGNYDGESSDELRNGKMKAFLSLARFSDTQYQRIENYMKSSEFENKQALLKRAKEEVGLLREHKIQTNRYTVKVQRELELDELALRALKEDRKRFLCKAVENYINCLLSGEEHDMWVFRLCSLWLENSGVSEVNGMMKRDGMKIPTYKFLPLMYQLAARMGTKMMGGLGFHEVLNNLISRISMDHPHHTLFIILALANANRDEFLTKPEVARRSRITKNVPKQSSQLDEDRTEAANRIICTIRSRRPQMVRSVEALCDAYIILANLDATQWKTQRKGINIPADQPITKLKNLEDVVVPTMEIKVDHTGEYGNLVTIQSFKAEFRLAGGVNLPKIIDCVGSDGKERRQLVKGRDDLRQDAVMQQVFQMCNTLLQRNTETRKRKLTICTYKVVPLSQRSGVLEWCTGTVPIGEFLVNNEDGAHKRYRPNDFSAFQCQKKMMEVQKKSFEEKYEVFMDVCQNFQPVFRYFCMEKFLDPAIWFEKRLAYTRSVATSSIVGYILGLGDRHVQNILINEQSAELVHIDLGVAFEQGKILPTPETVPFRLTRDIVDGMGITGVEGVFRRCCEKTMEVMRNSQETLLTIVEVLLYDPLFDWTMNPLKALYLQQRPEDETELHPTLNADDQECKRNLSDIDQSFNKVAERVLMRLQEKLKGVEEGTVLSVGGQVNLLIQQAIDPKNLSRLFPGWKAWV

B1: MBP-tagged human MRI (natural protein, UniProt Q9BWK5 1-157, looked up)
chain: METLQSETKTRVLPSWLTAQVATKNVAPMKAPKRMRMAAVPVAAARLPATRTVYCMNEAEIVDVALGILIESRKQEKACEQPALAGADNPEHSPPCSVSPHTSSGSSSEEEDSGKQALAPGLSPSQRPGGSSSACSRSPEEEEEEDVLKYVREIFFS
For B1, the binding result was “binds”.
